Measured values: patent US20230265198A1 (TWIST BIOSCIENCE, published 2023)

Biological target: neuropilin-1 (NRP1), analyte in SPR (UniProt O14786 22-644, limits assumed)
Test: SPR, Carterra LSA, antibody coupled
Procedure: SPR experiments were performed on a Carterra LSA SPR biosensor equipped with a HC30M chip at 25° C. in HBS-TE. Antibodies were diluted to 10 μg/mL and amine-coupled to the sensor chip by EDC/NHS activation, followed by ethanolamine HCl quenching. Increasing concentrations of analyte were flowed over the sensor chip in HBS-TE with 0.5 mg/mL BSA with 5-minute association and 15-minute dissociation. Following each injection cycle the surface was regenerated with 2× 30-second injections of IgG elution buffer (Thermo). Data were analyzed in Carterra's Kinetics Tool software with 1:1 binding model.

binding result	Binder
no binding	NRP1-27 (VHH) VHH: EVQLVESGGGLVQPGGSLRLSCAASGFRFGDYPMGWFRQAPGKEREFVSAISWSGGSTVYADSVKGRFTISADNSKNTAYLQMNSLKPEDTAVYYCALGPVRRSRLEWGQGTLVTVSS

Biological target: neuropilin-1 (NRP1) on HEK293 cells overexpressing NRP1 (UniProt O14786)
Test: flow cytometry, HEK293-NRP1 vs HEK293

100 nM FACS (MFI Ratio)	Binder
1.5	NRP1-62 (VHH) VHH: EVQLVESGGGLVQPGGSLRLSCAASGSSLSNYTMGWFRQAPGKERELVATIWWTVGAPYYADSVKGRFTISADNSKNTAYLQMNSLKPEDTAVYYCAAYQRGWGDWGQGTLVTVSS
1.9	NRP1-70 (VHH) VHH: EVQLVESGGGLVQPGGSLRLSCAASGDTFSRYTMGWFRQAPGKEREFVATIWWTFDAPYYADSVKGRFTISADNSKNTAYLQMNSLKPEDTAVYYCAARSPMSPTWDWGQGTLVTVSS
1.9	NRP1-53 (VHH) VHH: EVQLVESGGGLVQPGGSLRLSCAASGRTFNRYPMGWFRQAPGKEREWVAAITPQGVPNYADSVKGRFTISADNSKNTAYLQMNSLKPEDTAVYYCAIHTSREIWGQGTLVTVSS
1.9	NRP1-58 (VHH) VHH: EVQLVESGGGLVQPGGSLRLSCAASGRTFNRYPMGWFRQAPGKEREWVAGINSGGGTWYADSVKGRFTISADNSKNTAYLQMNSLKPEDTAVYYCAIHTSREIWGQGTLVTVSS
2.1	NRP1-27 (VHH) VHH: EVQLVESGGGLVQPGGSLRLSCAASGFRFGDYPMGWFRQAPGKEREFVSAISWSGGSTVYADSVKGRFTISADNSKNTAYLQMNSLKPEDTAVYYCALGPVRRSRLEWGQGTLVTVSS
